Data: the RNAGym collection of RNA variant scans (doi:10.1073/pnas.2313332121)

B1: TPR t1 (parent)
chain: GACCAAUCUGCCCUCAGAGCUCGAGAACAUCUUCGGAUGCAGAGGAGGCAGGCUUCGGUGGCGCGAUAGCGCCAACGUCCUCAACCUCCAAUGCAUCCCACCACAUGAUGAUGCCUGAAGAGCCUUGGUUUUUUG

Variants of: B1
Assay: polymerase ribozyme fitness, log enrichment relative to wild type (log ratio); higher = more active; in vitro selection for triplet polymerase activity
Outline: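 Libraries of mutants in each subunit of a heterodimeric triplet polymerase ribozyme were generated by PCR and transcribed. In triplicate, each went through one in vitro selection round: annealing with biotinylated primer, partner subunit and triplets; frozen incubation at −7 °C; gel excision of extended constructs; streptavidin-bead capture; RT-PCR. Fitness, taken from Illumina sequencing of input and output libraries, is the logarithm of a genotype's enrichment over wild-type enrichment, averaged across replicates with inverse-variance weights. The logarithm is base 2, and genotypes needed ≥10 input reads and ≥1 read per output to be kept.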

| Variant | polymerase ribozyme fitness (log ratio) |
| --- | --- |
| GCCCAAUCUGCCCUCUGAGCUCGAGAACAUCUUCGGAUGCAGAGGAGGCAGGCUUCGGUGGCGCGAUAGCGACAACGUCCUCAACCUCCAAUGCAUCCCACCACAUGAUGAUGCCUGAAGAGCCAUGGUUUUUUG | -3.54 |
| GCCCAAUCUGCCCUCAGAGCUCGAGAACAUCUUCGGAUGCAGAGGAGGCAGGCUUCGGUGGCGCGAUAGCGCCAACGUCCUCAACCUCCAAUGCAUCCCCCCACAUGAAGAUGCCUGAAGAGCCUUGGUUUUUUG | -6.4 |
| GCCUAAUCUGCCCUCAGAGCUCGAGAACAUCUUCGUAUGCAGAGGAGGCAGGCUUCGGUGGCGCGAUAGCGCAAACGUCCUCAACCUCCAAUGCAUCCCACCAUAUGAUGAUGCCUGAAGAGCCUUGGUUUUUUG | -2.65 |
| GCCUAAUCUGCCUUCAGAGCUCGAGAACAUCUUCGGAUGCAGAGGAGGCAGGCUUCGGUGGCGCGAUAGCGCCAACGUCCUCAACCUCCAAUGCAUCCCACCACAUGAUGAUGUCUGAAGAGCGUUGGUUUUUUG | -1.63 |
| GCCAAAUCUGCCCUCAGAGCUCGAGAACAUCUUCGGAUGCAGAAGAGGUAGGCUUCGGUGGCACGAUAGCGCCAACGUCCUCAACCUCCAAUGCAUCCCACCACAUGAUGAUGCCUGAAGAGCCUUGGUUUUUUG | -3.51 |
| GCCCAAUCUGCCCUCGGAGCUCGAGAACAUCUUCGGAUGCAGAGGAGGAAGGCUGCGGUGGCGCGAUAGCGCCAACGUCCUCAACCUCCAAUGCAUCCCACCACAUGAUGAUGCCUGAACAGCUUUGGUUUUUUG | -1.14 |
| GCCCAAUCUGGCGUCAGAGCUCGAGAACAUCUUCGGAUGCAUAGGAGGCAGGCUUCGGUGGCGCGAUAGCGCCAGCGUCCACAACCUCCAAUGCAUCCCACCACAUGAUGAUGCCUGAAGAGCCUUGGUUUUUUG | -4.31 |
| GCCAAAUCUGCCCUCAGAGCUCGAGAACAUCUUCGGAUGCAGAGGAGGCAGGCUUCGGUGGCGCGAUAGCGCCAACGUCCUCAACCUCCAAUGCAUCCCACCACAUGAUGAUGCCUGAAGAGCCUUGGUUUUUUG | -1.3 |
| GCCCAAUCUGCCGUCUGAGCUCGAGAACAUCUUCGGAUGCAGAGGAGGCAGGCUUCGGUGGCGCGAUAGCGCCAACGUCCUCAACCUCCAAUGCAUCCCACCACAUGAUGAUGCCUGAAGAGCCUUGGUUUUUUG | -4.01 |
| GCCAAAUCUGCCCUCAGAGCUCGAGAACAUCUUCGGAUGCAGAGGAGGCAGGCUUCGGUGGCGCGAUAGCGCCAACGUCCUCAACCUCCAAUGCAUCCCACCACAUGGUGAUGCCUGAAGAGCCUUGGUUUUUUG | -3.25 |
| GCCAAAUCUGCCCUCAGAGCUCGAGAACAUCUUCGGAUGCAGAGGAGGCAGGCUUCGGUGGCGCGAUAGCGCCAACGUCCUCAUCCUCCAAUGCAUCCCACCACAUGAUGAUGCGUGAAGAGCCUUGGUUUUUUG | -5.82 |
| GCCCGACCUGCCAUCAGAGCUCGAGAACAUCUUCGGAUGCAGAGGAGUCUGGCUUCGGUGGCGCGAUAGCGCCAACGUCCUCAACCUCCAACGCAUUCCACCACAUGAUGAUGCCUGAAGAGUCUUGGUUUUUUG | -4.24 |
| GCCCAGUAUGCCCUCAGAGCUCGAGAACAUCUUCGGAUGCAGAGGAGGCAGGCUUCGGUGACGCGAUAGCGCCAACGUCCUCAACCUCCAAUGCAUCCCAGCACAUGAUGAUGCCUGAAGAGCCUUGGUUCUUUG | -1.87 |
| GCCCAAUCUGCCCUCAGAGCUCGAGAACAUCUUCGGAUGCAGAGGAGGCUGGCUUCGGAGGCGCGAUAGCGCCAACGUCCUCAACCUCCAAUGCAUCCCACCACAUGAUGCUGCCUGAAGCGCCUUGGUUUUAUC | -1.62 |
| GCUCAAUCUGCCCUCAGAGCUCGAGAACAUCUUCGGAUGCAGAGGAGGCAGGCUUCGGCGGCGCGAUAGCGCCAACGUCCUCAACCUCCAAUGCAUCCCACCAAAUGAUGAUGCCUGAAGAGCCUUGGUUUUUUG | -4.21 |
| GCCCAAUCUGCCCUCAGAGCUCGAGAACAUCUUCGGUUGCAGAGGAGGCAGGCUUCGGUGGCGCGAUAGCGCUAACGUCCUCAACCUCCAAUACAUCCCACCACAUGAUGAUGCCUGAACAGCCUUGGUUUUUUG | -2.44 |
| GCCCAAUCUGCCCUCAGAGCUCGAGAACAUCUUCGGUUGCAGAGGAGGCAGGCUUCGGUGGCGCGAUAGCGCCAACGGCCUCAACCUCCAAUGCAUCCCACCACAUGAUGAUGCCUGAAUAGCCUUGGUUUUUUG | -1.6 |
| GCCCAAUCUGCCCUCAGAGCUCGAGAACAUCUUCGGAUGCAGAGGAGGCAGGCUUCGGUGGCGCGAUAGCGCCAACGUCCUCAGCCUCCAAUGCAUCCUACCACAUGAUGAUGCCUGAAGAGCCUUGGUUUUUUG | -6.59 |
| GCCCAAUCUGUCCUUAGAGCUCGAGAACAUCUUCGGAUGCAGAGGAGGCAGGCUGCGGUGGCUCGAUAGCGCCAACGUCCUCAACCUCCGAUGCAUCCCACCACAUGAUGAUGCCUGAAGGGCCUUGGUUUUUUG | -1.56 |
| GCCCAAUCUGCUCUCAGAGCUCGAGAACAUCUUCGGAUGCAUAGGAGGCAGGCUUCGGUGGCGCGAUAGCUCCAACGUCCUCAUCCUCCAAUGAAUCCCACCACAUGAUGAUGCCUGAAGAGCCUUGGAUUUUUG | -4.83 |
| GCCCAAUCUGCCCUCAGAGCUCGAGAACAUCUUCGGUUGCAGAGGAGGCAGGCUUCGGUGGCGCGAUAGCGCCAACGUCCUCAACCUCCAAUGCAUCCCACCACAUGAUGAUGCCUGAAGAGUCUUGGUUUUUUG | -0.77 |
